Data published in patent US20260356955 (published 2026).

T1: cynomolgus KLRB1 on CHO-K1 (cynomolgus)
T1 chain: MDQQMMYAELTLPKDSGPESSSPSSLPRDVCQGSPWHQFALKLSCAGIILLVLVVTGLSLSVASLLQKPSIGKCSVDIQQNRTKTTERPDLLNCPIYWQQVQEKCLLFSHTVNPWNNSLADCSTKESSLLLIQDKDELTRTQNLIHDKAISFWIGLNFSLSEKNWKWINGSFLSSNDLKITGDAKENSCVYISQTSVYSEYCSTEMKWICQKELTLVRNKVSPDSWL


Columns and labels:
human KLRB1 ECD [1] = molecular target: human KLRB1 ECD (human); test: ELISA
[2] = molecular target: T1, cynomolgus KLRB1 on CHO-K1; test: FACS
human KLRB1 on CHO-K1 = human KLRB1 on CHO-K1 (human); test: FACS
Chain of human KLRB1 on CHO-K1 (human) (chain, as listed by the source): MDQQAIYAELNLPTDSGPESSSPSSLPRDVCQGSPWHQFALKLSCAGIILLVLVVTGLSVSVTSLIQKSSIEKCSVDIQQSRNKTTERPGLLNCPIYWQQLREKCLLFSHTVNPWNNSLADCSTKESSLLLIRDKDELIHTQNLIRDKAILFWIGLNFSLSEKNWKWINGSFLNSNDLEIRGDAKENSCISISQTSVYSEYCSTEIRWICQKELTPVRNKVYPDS

human KLRB1 ECD [3] = molecular target: human KLRB1 ECD (human); test: SPR

Chain of human KLRB1 ECD (human) (chain, as listed by the source): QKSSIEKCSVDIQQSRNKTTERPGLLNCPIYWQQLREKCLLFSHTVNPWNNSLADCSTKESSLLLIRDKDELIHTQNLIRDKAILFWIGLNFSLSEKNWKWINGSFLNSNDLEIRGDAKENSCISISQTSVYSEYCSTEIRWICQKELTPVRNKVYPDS

| Binder | EC50 (human KLRB1 ECD [1]) [nM] | binding result [2] | EC50 (human KLRB1 on CHO-K1) [nM] | Kd (human KLRB1 ECD [3]) [nM] |
| --- | --- | --- | --- | --- |
| Hu50A8F2-12 (antibody, V domains shown) VH: QVQLVQSGAEVKKPGASVKVSCKASGYTFIDYYINWVRQAPGQGLEWMGWIFPGSGHTKYNENFKGKVTLTVDTSTSTVYMELSSLRSEDTAVYYCARGDRSALGYFDYWGQGTTVTVSS VL: DIQLTQSPSSLSASVGDRVTITCTASSSVSSTYLHWYQQKPGKSPKLLIYSTSNLASGVPSRFSGSGSGTDYTLTISSLQPEDAATYYCHQYHRSPLTFGQGTKLEIK | 0.014 | no binding | 5.77 | – |
| Hu50A8F2-10 (antibody, V domains shown) VH: QVQLVQSGAEVKKPGASVKVSCKASGYTFIDYYINWVRQAPGQGLEWMGWIFPGSGHTKYNENFKGKVTLTVDTSTSTVYMELSSLRSEDTAVYYCARGDRSALGYFDYWGQGTTVTVSS VL: DIQMTQSPSSLSASVGDRVTITCTASSSVSSTYLHWYQQKPGKAPKLLIYSTSNLASGVPSRFSGSGSGTDYTLTISSLQPEDFATYYCHQYHRSPLTFGQGTKLEIK | 0.0187 | no binding | 5.67 | – |
| Hu50A8F2-09 (antibody, V domains shown) VH: QVQLVQSGAEVKKPGASVKVSCKASGYTFIDYYINWVRQAPGQGLEWMGWIFPGSGHTKYNENFKGKVTLTVDTSTSTVYMELSSLRSEDTAVYYCARGDRSALGYFDYWGQGTTVTVSS VL: DIQMTQSPSSLSASVGDRVTITCTASSSVSSTYLHWYQQKPGKAPKLLIYSTSNLASGVPSRFSGSGSGTDFTLTISSLQPEDFATYYCHQYHRSPLTFGQGTKLEIK | 0.0189 | no binding | 5.4 | – |
| Hu50A8F2-16 (antibody, V domains shown) VH: QVQLVQSGAEVKKPGASVKVSCKASGYTFIDYYINWVRQAPGQGLEWIGWIFPGSGHTKYNENFKGKVTLTVDTSTSTVYMELSSLRSEDTAVYFCARGDRSALGYFDYWGQGTTVTVSS VL: DIQLTQSPSSLSASVGDRVTITCTASSSVSSTYLHWYQQKPGKSPKLLIYSTSNLASGVPSRFSGSGSGTDYTLTISSLQPEDAATYYCHQYHRSPLTFGQGTKLEIK | 0.0103 | no binding | 5.27 | – |
| Hu22F10G3-1.3 (antibody, V domains shown) VH: QVQLQESGPGLVKPSQTLSLTCTVSGYSLTSDFAWNWIRQHPGKGLEWIGDIRYSGSTDYNPSLKGRVTISVDTSKNQFSLKLSSVTAADTAVYYCARGGYYGYDEGYPMDYWGQGTLVTVSS VL: DIVMTQSPDSLAVSLGERATISCRASESVDVYGNSFMHWYQQKPGQPPKLLIYLAFNLKSGVPDRFSGSGSGTDFTLTISSLQAEDVAVYYCQQNNEDPFTFGQGTKLEIK | – | – | – | 0.177 |
| Hu22F10G3-4.1 (antibody, V domains shown) VH: QVQLQESGPGLVKPSQTLSLTCTVSGYSLTSDFAWNWIRQFPGKGLEWMGDIRYSGSTDYNPSLKGRSTISRDTSKNQFFLKLSSVTAADTAVYYCARGGYYGYDEGYPMDYWGQGTLVTVSS VL: DIVMTQSPDSLAVSLGERATINCRASESVDVYGNSFMHWYQQKPGQPPKLLIYLAFNLKSGVPDRFSGSGSGTDFTLTISSLQAEDVAVYYCQQNNEDPFTFGQGTKLEIK | – | – | – | 0.105 |
| Hu22F10G3-2.1 (antibody, V domains shown) VH: QVQLQESGPGLVKPSQTLSLTCTVSGYSLTSDFAWNWIRQHPGKGLEWMGDIRYSGSTDYNPSLKGRVTISRDTSKNQFSLKLSSVTAADTAVYYCARGGYYGYDEGYPMDYWGQGTLVTVSS VL: DIVMTQSPDSLAVSLGERATINCRASESVDVYGNSFMHWYQQKPGQPPKLLIYLAFNLKSGVPDRFSGSGSGTDFTLTISSLQAEDVAVYYCQQNNEDPFTFGQGTKLEIK | – | – | – | 0.104 |
| Hu22F10G3-4.4 (antibody, V domains shown) VH: QVQLQESGPGLVKPSQTLSLTCTVSGYSLTSDFAWNWIRQFPGKGLEWMGDIRYSGSTDYNPSLKGRSTISRDTSKNQFFLKLSSVTAADTAVYYCARGGYYGYDEGYPMDYWGQGTLVTVSS VL: DIVMTQSPDSLAVSLGERATISCRASESVDVYGNSFMHWYQQKPGQPPKLLIYLAFNLKSGVPARFSGSGSGTDFTLTISSLQAEDVATYYCQQNNEDPFTFGQGTKLEIK | – | – | – | 0.121 |
| Hu22F10G3-2.4 (antibody, V domains shown) VH: QVQLQESGPGLVKPSQTLSLTCTVSGYSLTSDFAWNWIRQHPGKGLEWMGDIRYSGSTDYNPSLKGRVTISRDTSKNQFSLKLSSVTAADTAVYYCARGGYYGYDEGYPMDYWGQGTLVTVSS VL: DIVMTQSPDSLAVSLGERATISCRASESVDVYGNSFMHWYQQKPGQPPKLLIYLAFNLKSGVPARFSGSGSGTDFTLTISSLQAEDVATYYCQQNNEDPFTFGQGTKLEIK | – | – | – | 0.116 |
| Hu22F10G3-3.3 (antibody, V domains shown) VH: QVQLQESGPGLVKPSQTLSLTCTVSGYSLTSDFAWNWIRQHPGKGLEWMGDIRYSGSTDYNPSLKGRSTISRDTSKNQFSLKLSSVTAADTAVYYCARGGYYGYDEGYPMDYWGQGTLVTVSS VL: DIVMTQSPDSLAVSLGERATISCRASESVDVYGNSFMHWYQQKPGQPPKLLIYLAFNLKSGVPDRFSGSGSGTDFTLTISSLQAEDVAVYYCQQNNEDPFTFGQGTKLEIK | – | – | – | 0.18 |

Next, values leading:

| EC50 (human KLRB1 ECD [1]) [nM] | binding result [2] | EC50 (human KLRB1 on CHO-K1) [nM] | Kd (human KLRB1 ECD [3]) [nM] | Binder |
| --- | --- | --- | --- | --- |
| 0.0148 | no binding | 5.39 | – | Hu50A8F2-15 (antibody, V domains shown) VH: QVQLVQSGAEVKKPGASVKVSCKASGYTFIDYYINWVRQAPGQGLEWIGWIFPGSGHTKYNENFKGKVTLTVDTSTSTVYMELSSLRSEDTAVYFCARGDRSALGYFDYWGQGTTVTVSS VL: DIQLTQSPSSLSASVGDRVTITCTASSSVSSTYLHWYQQKPGKSPKLLIYSTSNLASGVPSRFSGSGSGTDYTLTISSLQPEDFATYYCHQYHRSPLTFGQGTKLEIK |
| 0.0104 | no binding | 5.06 | – | Hu50A8F2-13 (antibody, V domains shown) VH: QVQLVQSGAEVKKPGASVKVSCKASGYTFIDYYINWVRQAPGQGLEWIGWIFPGSGHTKYNENFKGKVTLTVDTSTSTVYMELSSLRSEDTAVYFCARGDRSALGYFDYWGQGTTVTVSS VL: DIQMTQSPSSLSASVGDRVTITCTASSSVSSTYLHWYQQKPGKAPKLLIYSTSNLASGVPSRFSGSGSGTDFTLTISSLQPEDFATYYCHQYHRSPLTFGQGTKLEIK |
| 0.0121 | no binding | 5.12 | – | Hu50A8F2-14 (antibody, V domains shown) VH: QVQLVQSGAEVKKPGASVKVSCKASGYTFIDYYINWVRQAPGQGLEWIGWIFPGSGHTKYNENFKGKVTLTVDTSTSTVYMELSSLRSEDTAVYFCARGDRSALGYFDYWGQGTTVTVSS VL: DIQMTQSPSSLSASVGDRVTITCTASSSVSSTYLHWYQQKPGKAPKLLIYSTSNLASGVPSRFSGSGSGTDYTLTISSLQPEDFATYYCHQYHRSPLTFGQGTKLEIK |
| 0.0111 | no binding | 5.44 | – | Hu50A8F2-08 (antibody, V domains shown) VH: QVQLVQSGAEVKKPGASVKVSCKASGYTFIDYYINWVRQAPGQGLEWMGWIFPGSGHTKYNENFKGKVTMTVDTSTSTVYMELSSLRSEDTAVYYCARGDRSALGYFDYWGQGTTVTVSS VL: DIQLTQSPSSLSASVGDRVTITCTASSSVSSTYLHWYQQKPGKSPKLLIYSTSNLASGVPSRFSGSGSGTDYTLTISSLQPEDAATYYCHQYHRSPLTFGQGTKLEIK |
| – | – | – | 0.135 | Hu22F10G3-2.2 (antibody, V domains shown) VH: QVQLQESGPGLVKPSQTLSLTCTVSGYSLTSDFAWNWIRQHPGKGLEWMGDIRYSGSTDYNPSLKGRVTISRDTSKNQFSLKLSSVTAADTAVYYCARGGYYGYDEGYPMDYWGQGTLVTVSS VL: DIVMTQSPDSLAVSLGERATINCRASESVDVYGNSFMHWYQQKPGQPPKLLIYLAFNLKSGVPARFSGSGSGTDFTLTISSLQAEDVAVYYCQQNNEDPFTFGQGTKLEIK |
| – | – | – | 0.152 | Hu22F10G3-1.2 (antibody, V domains shown) VH: QVQLQESGPGLVKPSQTLSLTCTVSGYSLTSDFAWNWIRQHPGKGLEWIGDIRYSGSTDYNPSLKGRVTISVDTSKNQFSLKLSSVTAADTAVYYCARGGYYGYDEGYPMDYWGQGTLVTVSS VL: DIVMTQSPDSLAVSLGERATINCRASESVDVYGNSFMHWYQQKPGQPPKLLIYLAFNLKSGVPARFSGSGSGTDFTLTISSLQAEDVAVYYCQQNNEDPFTFGQGTKLEIK |
| – | – | – | 0.189 | Hu22F10G3-3.2 (antibody, V domains shown) VH: QVQLQESGPGLVKPSQTLSLTCTVSGYSLTSDFAWNWIRQHPGKGLEWMGDIRYSGSTDYNPSLKGRSTISRDTSKNQFSLKLSSVTAADTAVYYCARGGYYGYDEGYPMDYWGQGTLVTVSS VL: DIVMTQSPDSLAVSLGERATINCRASESVDVYGNSFMHWYQQKPGQPPKLLIYLAFNLKSGVPARFSGSGSGTDFTLTISSLQAEDVAVYYCQQNNEDPFTFGQGTKLEIK |
| – | – | – | 0.13 | Hu22F10G3-4.2 (antibody, V domains shown) VH: QVQLQESGPGLVKPSQTLSLTCTVSGYSLTSDFAWNWIRQFPGKGLEWMGDIRYSGSTDYNPSLKGRSTISRDTSKNQFFLKLSSVTAADTAVYYCARGGYYGYDEGYPMDYWGQGTLVTVSS VL: DIVMTQSPDSLAVSLGERATINCRASESVDVYGNSFMHWYQQKPGQPPKLLIYLAFNLKSGVPARFSGSGSGTDFTLTISSLQAEDVAVYYCQQNNEDPFTFGQGTKLEIK |
| – | – | – | 0.122 | Hu22F10G3-3.1 (antibody, V domains shown) VH: QVQLQESGPGLVKPSQTLSLTCTVSGYSLTSDFAWNWIRQHPGKGLEWMGDIRYSGSTDYNPSLKGRSTISRDTSKNQFSLKLSSVTAADTAVYYCARGGYYGYDEGYPMDYWGQGTLVTVSS VL: DIVMTQSPDSLAVSLGERATINCRASESVDVYGNSFMHWYQQKPGQPPKLLIYLAFNLKSGVPDRFSGSGSGTDFTLTISSLQAEDVAVYYCQQNNEDPFTFGQGTKLEIK |
